Assay results taken from patent publication US20230357348A1 (AstraZeneca / MedImmune, published 2023).
Starred links: 1 amine or outer side, 2 acyl side, 3 side chain; linkers in the order of their positions; H or OH if unused. Non-standard residues stand in square brackets, D forms with d. Groups on a side chain read outwards from the residue. No end group written: not given here. *: point of attachment. C20 diacid = O=C(O)CCCCCCCCCCCCCCCCCCC(=O)*; C18 diacid = O=C(O)CCCCCCCCCCCCCCCCC(=O)*; γGlu = O=C(O)[C@H](CCC(=O)[*:2])N[*:1]; αMeF = C[C@](N)(Cc1ccccc1)C(=O)O; AEEA = NCCOCCOCC(=O)O; Aib = CC(C)(N)C(=O)O

Tests used:
human GLP-1 receptor = human GLP-1 receptor (human, UniProt P43220 24-463); experiment: cell-based or functional assay
human glucagon receptor = human glucagon receptor (human, UniProt P47871 26-477); experiment: cell-based or functional assay
Chain of human glucagon receptor (P47871 26-477): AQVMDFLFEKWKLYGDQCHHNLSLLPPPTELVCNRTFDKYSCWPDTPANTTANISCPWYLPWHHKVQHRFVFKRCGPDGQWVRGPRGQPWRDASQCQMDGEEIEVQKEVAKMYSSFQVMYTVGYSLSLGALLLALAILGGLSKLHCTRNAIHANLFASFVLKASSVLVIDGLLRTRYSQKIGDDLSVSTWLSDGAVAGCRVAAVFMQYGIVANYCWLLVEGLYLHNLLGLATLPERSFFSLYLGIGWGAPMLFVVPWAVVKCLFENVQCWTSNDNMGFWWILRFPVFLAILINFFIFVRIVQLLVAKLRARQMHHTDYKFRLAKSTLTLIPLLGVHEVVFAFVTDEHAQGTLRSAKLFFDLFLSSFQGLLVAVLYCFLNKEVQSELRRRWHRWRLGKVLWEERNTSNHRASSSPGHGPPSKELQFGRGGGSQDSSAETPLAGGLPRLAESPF

| Binder | hGLP-1R EC50 (pM), cAMP (human GLP-1 receptor) | hGluc-R EC50 (pM), cAMP (human glucagon receptor) |
| --- | --- | --- |
| H[Aib]HGS[αMeF]TSDVSKYLDSRAAK([AEEA-AEEA-γGlu-C18 diacid])D[αMeF]VQ[Aib]IANT-NH2 (also: F6: αMePhe per table, X13: αMePhe, Y per table) [Peptide 286] | 31.6 pM | 53 pM |
| HSHGS[αMeF]TSDVSK[αMeF]LDSRAAK([AEEA-AEEA-γGlu-C18 diacid])D[αMeF]VQ[Aib]IANT-NH2 (not fully specified; also: S2: Aib per table) [Peptide 285] | 301 pM | 87 pM |
| H[Aib]HGS[αMeF]TSDVSKYLDSRAAK([AEEA-AEEA-γGlu-γGlu-C20 diacid])D[αMeF]VQ[Aib]IANT-NH2 (also: F6: αMePhe per table, X13: αMePhe, Y per table) [Peptide 283] | 129 pM | 552 pM |
| H[Aib]HGS[αMeF]TSDVSK[αMeF]LDSRAAK([AEEA-AEEA-γGlu-γGlu-C20 diacid])D[αMeF]VQ[Aib]IANT-NH2 (also: S2: Aib per table, X6: αMePhe, F per table) [Peptide 282] | 1230 pM | 1140 pM |
| H[Aib]HGS[αMeF]TSDVSK[Aib]LDSRAAK([AEEA-AEEA-γGlu-C18 diacid])D[αMeF]VQ[Aib]IANT-NH2 (N-terminus assumed; SMILES CC[C@H](C)[C@H](NC(=O)C(C)(C)NC(=O)[C@H](CCC(N)=O)NC(=O)[C@@H](NC(=O)[C@](C)(Cc1ccccc1)NC(=O)[C@H](CC(=O)O)NC(=O)[C@H](CCCCNC(=O)COCCOCCNC(=O)COCCOCCNC(=O)CC[C@H](NC(=O)CCCCCCCCCCCCCCCCC(=O)O)C(=O)O)NC(=O)[C@H](C)NC(=O)[C@H](C)NC(=O)[C@H](CCCNC(=N)N)NC(=O)[C@H](CO)NC(=O)[C@H](CC(=O)O)NC(=O)[C@H](CC(C)C)NC(=O)C(C)(C)NC(=O)[C@H](CCCCN)NC(=O)[C@H](CO)NC(=O)[C@@H](NC(=O)[C@H](CC(=O)O)NC(=O)[C@H](CO)NC(=O)[C@@H](NC(=O)[C@](C)(Cc1ccccc1)NC(=O)[C@H](CO)NC(=O)CNC(=O)[C@H](Cc1c[nH]cn1)NC(=O)C(C)(C)NC(=O)[C@@H](N)Cc1c[nH]cn1)[C@@H](C)O)C(C)C)C(C)C)C(=O)N[C@@H](C)C(=O)N[C@@H](CC(N)=O)C(=O)N[C@H](C(N)=O)[C@@H](C)O) [Peptide 296] | 64.1 pM | 3250 pM |
| H[Aib]HGS[αMeF]TSDVSK[αMeF]LDSRAAK([AEEA-AEEA-γGlu-C18 diacid])DFVQ[Aib]IANT-NH2 (not fully specified; also: Y13: αMePhe per table) [Peptide 287] | 27.5 pM | 26.5 pM |
| H[Aib]HGS[αMeF]TSDVSKYLDSRAAKDFVQWIANT-NH2 (not fully specified (residue 20); also: F6: αMePhe per table) [Peptide 292] | 28.7 pM | 20.4 pM |
| H[Aib]HGS[αMeF]TSDVSK[αMeF]LDSRAAK([AEEA-AEEA-γGlu-C18 diacid])D[αMeF]VQWIANT-NH2 (not fully specified; also: F22: αMePhe per table) [Peptide 288] | 42.7 pM | 26.9 pM |
| H[Aib]HGS[αMeF]TSDVSR[αMeF]LDSRAAK([AEEA-AEEA-γGlu-γGlu-C20 diacid])D[αMeF]VQ[Aib]IANT-NH2 (N-terminus assumed; SMILES CC[C@H](C)[C@H](NC(=O)C(C)(C)NC(=O)[C@H](CCC(N)=O)NC(=O)[C@@H](NC(=O)[C@](C)(Cc1ccccc1)NC(=O)[C@H](CC(=O)O)NC(=O)[C@H](CCCCNC(=O)COCCOCCNC(=O)COCCOCCNC(=O)CC[C@H](NC(=O)CC[C@H](NC(=O)CCCCCCCCCCCCCCCCCCC(=O)O)C(=O)O)C(=O)O)NC(=O)[C@H](C)NC(=O)[C@H](C)NC(=O)[C@H](CCCNC(=N)N)NC(=O)[C@H](CO)NC(=O)[C@H](CC(=O)O)NC(=O)[C@H](CC(C)C)NC(=O)[C@](C)(Cc1ccccc1)NC(=O)[C@H](CCCNC(=N)N)NC(=O)[C@H](CO)NC(=O)[C@@H](NC(=O)[C@H](CC(=O)O)NC(=O)[C@H](CO)NC(=O)[C@@H](NC(=O)[C@](C)(Cc1ccccc1)NC(=O)[C@H](CO)NC(=O)CNC(=O)[C@H](Cc1c[nH]cn1)NC(=O)C(C)(C)NC(=O)[C@@H](N)Cc1c[nH]cn1)[C@@H](C)O)C(C)C)C(C)C)C(=O)N[C@@H](C)C(=O)N[C@@H](CC(N)=O)C(=O)N[C@H](C(N)=O)[C@@H](C)O) [Peptide 298] | 75.5 pM | 573 pM |

Results, then the binder that gave them:

| hGLP-1R EC50 (pM), cAMP (human GLP-1 receptor) | hGluc-R EC50 (pM), cAMP (human glucagon receptor) | Binder |
| --- | --- | --- |
| 151 pM | 271 pM | H[Aib]HGS[αMeF]TSDVSK[αMeF]LDSRAAK([AEEA-AEEA-γGlu-γGlu-C20 diacid])D[αMeF]IA[Aib]IAET-NH2 [Peptide 302] |
| 19.7 pM | 18.4 pM | H[Aib]HGS[αMeF]TSDVSK[αMeF]LDSRAAK([AEEA-AEEA-γGlu-C18 diacid])D[αMeF]VQ[Aib]IAET-NH2 (N-terminus assumed; SMILES CC[C@H](C)[C@H](NC(=O)C(C)(C)NC(=O)[C@H](CCC(N)=O)NC(=O)[C@@H](NC(=O)[C@](C)(Cc1ccccc1)NC(=O)[C@H](CC(=O)O)NC(=O)[C@H](CCCCNC(=O)COCCOCCNC(=O)COCCOCCNC(=O)CC[C@H](NC(=O)CCCCCCCCCCCCCCCCC(=O)O)C(=O)O)NC(=O)[C@H](C)NC(=O)[C@H](C)NC(=O)[C@H](CCCNC(=N)N)NC(=O)[C@H](CO)NC(=O)[C@H](CC(=O)O)NC(=O)[C@H](CC(C)C)NC(=O)[C@](C)(Cc1ccccc1)NC(=O)[C@H](CCCCN)NC(=O)[C@H](CO)NC(=O)[C@@H](NC(=O)[C@H](CC(=O)O)NC(=O)[C@H](CO)NC(=O)[C@@H](NC(=O)[C@](C)(Cc1ccccc1)NC(=O)[C@H](CO)NC(=O)CNC(=O)[C@H](Cc1c[nH]cn1)NC(=O)C(C)(C)NC(=O)[C@@H](N)Cc1c[nH]cn1)[C@@H](C)O)C(C)C)C(C)C)C(=O)N[C@@H](C)C(=O)N[C@@H](CCC(=O)O)C(=O)N[C@H](C(N)=O)[C@@H](C)O) [Peptide 300] |
| 211 pM | 155 pM | H[Aib]HGS[αMeF]TSDVSK[αMeF]LDSRAAK([AEEA-AEEA-γGlu-γGlu-C20 diacid])D[αMeF]VQ[Aib]IANT-NH2 (not fully specified) [Peptide 305] |
| 239 pM | 687 pM | H[Aib]HGS[αMeF]TSDVSK[αMeF]LDSRAAK([AEEA-AEEA-γGlu-γGlu-C20 diacid])D[αMeF]VQ[Aib]IANT-OH [Peptide 304] |
| 18.1 pM | 5850 pM | H[Aib]QGTFTSDVSK[αMeF]LDSRAAK([AEEA-AEEA-γGlu-C18 diacid])DFVQ[Aib]LVAT-NH2 (not fully specified) [Peptide 315] |
